{"source": "paper PMC9555238", "about": "“Interaction of BES1 and LBD37 transcription factors modulates brassinosteroid-regulated root forging response under low nitrogen in arabidopsis”", "target": "T1, LBD37 (Arabidopsis thaliana, UniProt Q9FN11 1-250)", "T1 sequence": "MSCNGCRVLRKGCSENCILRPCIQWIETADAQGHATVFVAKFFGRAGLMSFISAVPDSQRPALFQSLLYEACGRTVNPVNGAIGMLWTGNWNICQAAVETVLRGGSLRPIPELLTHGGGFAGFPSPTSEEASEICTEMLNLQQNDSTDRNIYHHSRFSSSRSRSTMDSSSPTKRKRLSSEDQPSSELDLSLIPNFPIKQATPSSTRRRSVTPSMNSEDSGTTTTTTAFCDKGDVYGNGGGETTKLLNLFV", "assay": "EMSA; 5 mM HEPES-KOH pH 8.0, 50 mM KCl, 1 mM DTT, 10% glycerol, 20 uL, on ice 60 min; 5% native PAGE in TBE", "conditions": "protein: recombinant; tags: MBP (N-terminal, pMAL-c2X); (LightShift chemiluminescent kit)", "data": [{"binder": "NRT2.1 promoter probe, mutated LOB motif (dsDNA) DNA 1: AGACTAGGAAGATGCTTGAAAAGAAAATGGATTCCTCGAAA DNA 2: TTTCGAGGAATCCATTTTCTTTTCAAGCATCTTCCTAGTCT", "values": [{"measurement": "binding result", "value": "no binding"}]}]}
